From paper PMC3245871 (Journal of molecular biology, 2011)
Where two headings read alike, the source gives them in different places.

How the values were obtained:
Z13-IL22-2 [1] = target: T1, Z13-IL22-2 (human, UniProt Q9GZX6, SLADNNT (64–70) replaced by residues WNWDDIT); assay: ITC
Z13-IL22-2 [2] = target: T1, Z13-IL22-2; assay: ITC; remark: listed apart in the source
Z13-IL22-2 [3] = target: T1, Z13-IL22-2; assay: ITC; remark: listed apart in the source
Z13-IL22-1 (human) = target: T2, Z13-IL22-1 (human) (UniProt Q9GZX6); assay: ITC
T2 sequence: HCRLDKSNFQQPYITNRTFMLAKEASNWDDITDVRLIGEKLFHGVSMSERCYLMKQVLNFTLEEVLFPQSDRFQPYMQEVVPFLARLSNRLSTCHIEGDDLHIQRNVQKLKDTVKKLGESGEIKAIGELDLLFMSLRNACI

Z13-IL22-2 [4] = target: T1, Z13-IL22-2; assay: ITC; remark: listed apart in the source
WT IL-22 = WT IL-22 (human, UniProt Q9GZX6); assay: ELISA
Z13-IL22-2 [5] = target: T1, Z13-IL22-2; assay: ELISA
mAb Z13e1 (human) = assay: ELISA

B1: Fab Z13e1 (Fab, V domains shown)
VH: EVQLLESGPGLLKPSETLSLTCTVSGGSMINYYWSWIRQPPGERPQWLGHIIYGGTTKYNPSLESRITISRDISKNQFSLRLNSVTAADTAIYYCARVAIGVSGFLNYYYYMDVWGSGTAVTVSS
VL: ELTQSPATLSLSPGERATLSCRASQSVGRNLGWYQQKPGQAPRLLIYDASNRATGIPARFSGSGSGTDFTLTISSLEPEDFAVYYCQARLLLPQTFGQGTKVEIK
Kd (Z13-IL22-2 [1]): 73 nM | dH (Z13-IL22-2 [2]): -7.46 kcal/mol | dH (Z13-IL22-2 [3]): -10.8 kcal/mol | Kd (Z13-IL22-1 (human)): 15 µM | dH (Z13-IL22-1 (human)): -7.47 kcal/mol | dH (Z13-IL22-2 [4]): -13.9 kcal/mol

B2: mAb Z13e1 (antibody, V domains shown)
VH: EVQLLESGPGLLKPSETLSLTCTVSGGSMINYYWSWIRQPPGERPQWLGHIIYGGTTKYNPSLESRITISRDISKNQFSLRLNSVTAADTAIYYCARVAIGVSGFLNYYYYMDVWGSGTAVTVSS
VL: ELTQSPATLSLSPGERATLSCRASQSVGRNLGWYQQKPGQAPRLLIYDASNRATGIPARFSGSGSGTDFTLTISSLEPEDFAVYYCQARLLLPQTFGQGTKVEIK
binding result (WT IL-22): no binding | IC50 (Z13-IL22-2 [5]): ~150 nM

NWFDITNWLWYIKKKK [negative peptide control 94.1]
IC50 (mAb Z13e1 (human)): > 5 µM
